Measurements taken from patent EP3470426A1 (Numab Therapeutics AG, dated 2019).
Where a chain is given by its changes, count along the chain named. Where two headings read alike, the source gives them in different places.

Key:
Assay in all cases: cell-based or functional assay
[1] = molecular target: T1, CD137 on Jurkat NFkB reporter cells (human, UniProt Q07011 24-255)
[2] = molecular target: T1, CD137 on Jurkat NFkB reporter cells; remark: listed apart in the source
[3] = molecular target: T1, CD137 on Jurkat NFkB reporter cells; remark: listed apart in the source
[4] = molecular target: T1, CD137 on Jurkat NFkB reporter cells; remark: listed apart in the source
[5] = molecular target: T1, CD137 on Jurkat NFkB reporter cells; remark: listed apart in the source
[6] = molecular target: T1, CD137 on Jurkat NFkB reporter cells; remark: listed apart in the source
[7] = molecular target: T2, human PD-L1 on cells (human, UniProt Q9NZQ7 19-290)
[8] = molecular target: T2, human PD-L1 on cells; remark: listed apart in the source
[9] = molecular target: T1, CD137 on Jurkat NFkB reporter cells; remark: listed apart in the source
[10] = molecular target: T1, CD137 on Jurkat NFkB reporter cells; remark: listed apart in the source

B1: PRO1058 (other)
chain: DIQMTQSPSSLSASVGDRVTITCQASQSINDYLAWYQQKPGKAPKLLIYKASTLASGVPSRFSGSGSGTDFTLTISSLQPEDFATYYCQQGYIITDIDNVFGTGTKVTVLGGGGGSQVQLQESGPGLVKPSETLSLTCKVSGFSFNNDYDMCWIRQPPGKGLEWIGCIDTGDGSTYYASWAKGRVTISVDSSKNQFSLKLSSVTAADTAVYYCAREAASSSGYGMGYFDLWGQGTLVTVSSGGGGSGGGGSGGGGSGGGGSIQMTQSPSSLSASVGDRVTITCQSSQSVYDNNWLAWYQQKPGKAPKLLIYRASNLASGVPSRFSGSGSGTDFTLTISSLQPEDFATYYCQGTYLSSNWYWAFGTGTKVTVLGGGGGSQVQLQESGPGLVKPSETLSLTCKVSGFSFSSGYDMCWIRQPPGKGLEWIGCVVAGSVDITYYASWAKGRVTISVDSSKNQFSLKLSSVTAADTAVYYCARKDAYSDAFNLWGQGTLVTVSSGGGGSGGGGSVVMTQSPSSLSASVGDRVTITCQASQIISSRSAWYQQKPGQPPKLLIYQASKLASGVPSRFSGSGSGTDFTLTISSLQPEDFATYYCQCTYIDSNFGAFGGGTKLTVLGGGGGSGGGGSGGGGSGGGGSEVQLVESGGGLVQPGGSLRLSCAASGFSFSSSYWICWVRQAPGKGLEWVGCVFTGDGTTYYASWAKGRFTISRDNSKNTVYLQMNSLRAEDTATYFCARPVSVYYYGMDLWGQGTLVTVSS
max. activation (%), NF-kB reporter, CHO-PD-L1, HSA yes, 24h [1]: 36.2% | EC50, NFkB-luciferase reporter, PD-L1 expressing CHO cells, 6h, + HSA [2]: 0.0709 µg/mL | EC50, NFkB-luciferase reporter, PD-L1 expressing CHO cells, 24h, + HSA [3]: 0.121 µg/mL

B2: PRO1123 (bispecific antibody)
chain: DIQMTQSPSSLSASVGDRVTITCQASQSINDYLAWYQQKPGKAPKLLIYKASTLASGVPSRFSGSGSGTDFTLTISSLQPEDFATYYCQQGYIITDIDNVFGTGTKVTVLGGGGGSQVQLQESGPGLVKPSETLSLTCKVSGFSFSNSYWICWVRQPPGKGLEWIGCTFVGSSDSTYYANWAKGRVTISVDSSKNQVSLKLSSVTAADTAVYFCARHPSDAVYGYANNLWGQGTLVTVSSGGGGSGGGGSGGGGSGGGGSIQMTQSPSSLSASVGDRVTITCQASQSINNVLAWYQQKPGKPPKLLIYRASTLASGVPSRFSGSGSGTDFTLTISSLQPEDFATYYCQSSYGNYGDFGTGTKVTVLGGGGGSQVQLQESGPGLVKPSETLSLTCKVSGFSFSSGYDMCWIRQPPGKGLEWIGCVVAGSVDITYYASWAKGRVTISVDSSKNQFSLKLSSVTAADTAVYYCARKDAYSDAFNLWGQGTLVTVSS
EC50, NFkB-luciferase reporter, HCC827 cells stimulated with IFNg [4]: 0.0119 µg/mL | max. activation (%), NF-kB reporter, CHO-PD-L1 [1]: 219% | max. activation (%), NF-kB reporter, HCC827 +IFNg [1]: 154% | max. activation (%), NF-kB reporter, HCC827 -IFNg [1]: 123% | EC50, NFkB-luciferase reporter, CHO-PD-L1 cells [5]: 0.00575 µg/mL | EC50, NFkB-luciferase reporter, HCC827 cells without IFNg [6]: 0.0161 µg/mL

B3: PRO1126 (bispecific antibody)
chain: DFQLTQSPSSLSASVGDRVTITCQASQSINDYLAWYQQKPGKSPKLLIYKASTLASGVPSRFSGSGSGTDFTLTISSLQPEDFATYYCQQGYIITDIDNVFGTGTKVTVLGGGGGSQVQLQESGPGLVKPSETLSLTCKVSGFSFSNSYWICWIRQPPGKGLEWIGCTFVGSSDSTYYANWAKGRVTISVDSSKNQFSLKLSSVTAADTAVYYCARHPSDAVYGYANNLWGQGTLVTVSSGGGGSGGGGSGGGGSGGGGSIQMTQSPSSLSASVGDRVTITCQASQSINNVLAWYQQKPGKAPKLLIYRASTLASGVPSRFSGSGSGTDFTLTISSLQPEDFATYYCQSSYGNYGDFGTGTKVTVLGGGGGSQSQLQESGPGLVKPSETLSLTCKASGFSFSSGYDMCWVRQPPGKGLEWIACVVAGSVDITYYASWAKGRVTISKDSSKNQVSLKLSSVTAADTAVYFCARKDAYSDAFNLWGQGTLVTVSS
EC50, NFkB-luciferase reporter, HCC827 cells stimulated with IFNg [4]: 0.00548 µg/mL | IC50, NFAT-luciferase reporter gene assay [7]: 0.0481 µg/mL | fold improvement of neutralization potency against PRO885, NFAT reporter [7]: 3 fold | max. activation (%), NF-kB reporter, CHO-PD-L1 [1]: 242% | max. activation (%), NF-kB reporter, HCC827 +IFNg [1]: 208% | max. activation (%), NF-kB reporter, HCC827 -IFNg [1]: 135% | EC50, NFkB-luciferase reporter, CHO-PD-L1 cells [5]: 0.006 µg/mL | EC50, NFkB-luciferase reporter, HCC827 cells without IFNg [6]: 0.00697 µg/mL

B4: PRO1124 (bispecific antibody)
chain: B2 chain with V140A, V190K, I261L
EC50, NFkB-luciferase reporter, HCC827 cells stimulated with IFNg [4]: 0.00483 µg/mL | max. activation (%), NF-kB reporter, CHO-PD-L1 [1]: 229% | max. activation (%), NF-kB reporter, HCC827 +IFNg [1]: 188% | max. activation (%), NF-kB reporter, HCC827 -IFNg [1]: 113% | EC50, NFkB-luciferase reporter, CHO-PD-L1 cells [5]: 0.00368 µg/mL | EC50, NFkB-luciferase reporter, HCC827 cells without IFNg [6]: 0.00562 µg/mL

B5: PRO1060 (bispecific antibody, human IgG1, kappa, L234A L235A)
light: DIQMTQSPSSLSASVGDRVTITCQASQSINDYLAWYQQKPGKAPKLLIYKASTLASGVPSRFSGSGSGTDFTLTISSLQPEDFATYYCQQGYIITDIDNVFGTGTKVTVLGTVAAPSVFIFPPSDEQLKSGTASVVCLLNNFYPREAKVQWKVDNALQSGNSQESVTEQDSKDSTYSLSSTLTLSKADYEKHKVYACEVTHQGLSSPVTKSFNRGEC
heavy: QVQLQESGPGLVKPSETLSLTCKVSGFSFSSGYDMCWIRQPPGKGLEWIGCVVAGSVDITYYASWAKGRVTISVDSSKNQFSLKLSSVTAADTAVYYCARKDAYSDAFNLWGQGTLVTVSSASTKGPSVFPLAPSSKSTSGGTAALGCLVKDYFPEPVTVSWNSGALTSGVHTFPAVLQSSGLYSLSSVVTVPSSSLGTQTYICNVNHKPSNTKVDKRVEPKSCDKTHTCPPCPAPEAAGGPSVFLFPPKPKDTLMISRTPEVTCVVVDVSHEDPEVKFNWYVDGVEVHNAKTKPREEQYNSTYRVVSVLTVLHQDWLNGKEYKCKVSNKALGAPIEKTISKAKGQPREPQVYTLPPSREEMTKNQVSLTCLVKGFYPSDIAVEWESNGQPENNYKTTPPVLDSDGSFFLYSKLTVDKSRWQQGNVFSCSVMHEALHNHYTQKSLSLSPGKGGGGSGGGGSIQMTQSPSSLSASVGDRVTITCQASQSINNVLAWYQQKPGKAPKLLIYRASTLASGVPSRFSGSGSGTDFTLTISSLQPEDFATYYCQSSYGNYGDFGTGTKVTVLGGGGGSGGGGSGGGGSGGGGSQVQLQESGPGLVKPSETLSLTCKVSGFSFSNSYWICWIRQPPGKGLEWIGCTFVGSSDSTYYANWAKGRVTISVDSSKNQFSLKLSSVTAADTAVYYCARHPSDAVYGYANNLWGQGTLVTVSS
IC50, NFAT-luciferase reporter gene assay [8]: 0.133 µg/mL | EC50, NFkB-luciferase reporter, PD-L1 expressing CHO cells, 6h [2]: 0.0564 µg/mL | EC50, NFkB-luciferase reporter, PD-L1 expressing CHO cells, 24h [3]: 0.0808 µg/mL | EC50, NFkB-luciferase reporter, HCC827 with IFNy stimulation, 24h [9]: 0.0175 µg/mL | EC50, NFkB-luciferase reporter, HCC827 without IFNy stimulation, 24h [9]: 0.0136 µg/mL

B6: PRO1057 (other)
chain: DIQMTQSPSSLSASVGDRVTITCQASQSINDYLAWYQQKPGKAPKLLIYKASTLASGVPSRFSGSGSGTDFTLTISSLQPEDFATYYCQQGYIITDIDNVFGTGTKVTVLGGGGGSQVQLQESGPGLVKPSETLSLTCKVSGFSFSNSYWICWIRQPPGKGLEWIGCTFVGSSDSTYYANWAKGRVTISVDSSKNQFSLKLSSVTAADTAVYYCARHPSDAVYGYANNLWGQGTLVTVSSGGGGSGGGGSGGGGSGGGGSIQMTQSPSSLSASVGDRVTITCQASQSINNVLAWYQQKPGKAPKLLIYRASTLASGVPSRFSGSGSGTDFTLTISSLQPEDFATYYCQSSYGNYGDFGTGTKVTVLGGGGGSQVQLQESGPGLVKPSETLSLTCKVSGFSFSSGYDMCWIRQPPGKGLEWIGCVVAGSVDITYYASWAKGRVTISVDSSKNQFSLKLSSVTAADTAVYYCARKDAYSDAFNLWGQGTLVTVSSGGGGSGGGGSVVMTQSPSSLSASVGDRVTITCQASQIISSRSAWYQQKPGQPPKLLIYQASKLASGVPSRFSGSGSGTDFTLTISSLQPEDFATYYCQCTYIDSNFGAFGGGTKLTVLGGGGGSGGGGSGGGGSGGGGSEVQLVESGGGLVQPGGSLRLSCAASGFSFSSSYWICWVRQAPGKGLEWVGCVFTGDGTTYYASWAKGRFTISRDNSKNTVYLQMNSLRAEDTATYFCARPVSVYYYGMDLWGQGTLVTVSS
max. activation (%), NF-kB reporter, CHO-PD-L1, HSA yes, 24h [1]: 663% | IC50, NFAT-luciferase reporter gene assay, with HSA [8]: 0.665 µg/mL | EC50, NFkB-luciferase reporter, PD-L1 expressing CHO cells, 6h, + HSA [2]: 0.112 µg/mL | EC50, NFkB-luciferase reporter, PD-L1 expressing CHO cells, 24h, + HSA [3]: 0.792 µg/mL | EC50, NFkB-luciferase reporter, HCC827 with IFNy stimulation, 24h, +HSA [9]: 0.115 µg/mL | EC50, NFkB-luciferase reporter, HCC827 without IFNy stimulation, 24h, +HSA [9]: 0.0766 µg/mL

B7: PRO951 (bispecific antibody)
chain: DIQMTQSPSSLSASVGDRVTITCQASQSINDYLAWYQQKPGKAPKLLIYKASTLASGVPSRFSGSGSGTDFTLTISSLQPEDFATYYCQQGYIITDIDNVFGTGTKVTVLGGGGGSEVQLVESGGGLVQPGGSLRLSCAASGFSFNNDYDMCWVRQAPGKGLEWIGCIDTGDGSTYYASWAKGRFTISRDNSKNTVYLQMNSLRAEDTAVYYCAREAASSSGYGMGYFDLWGQGTLVTVSSGGGGSGGGGSGGGGSGGGGSIQMTQSPSSLSASVGDRVTITCQSSQSVYDNNWLAWYQQKPGKAPKLLIYRASNLASGVPSRFSGSGSGTDFTLTISSLQPEDFATYYCQGTYLSSNWYWAFGTGTKVTVLGGGGGSQVQLQESGPGLVKPSETLSLTCKVSGFSFSSGYDMCWIRQPPGKGLEWIGCVVAGSVDITYYASWAKGRVTISVDSSKNQFSLKLSSVTAADTAVYYCARKDAYSDAFNLWGQGTLVTVSS
EC50, NFkB-luciferase reporter, CHO-PD-L1 cells [10]: 0.0337 µg/mL | max. activation (%), NF-kB reporter, CHO-PD-L1 [1]: 432% | IC50, NFAT-luciferase reporter gene assay [8]: 0.0885 µg/mL
